Assay results published in article PMC11841054 (Journal of Bacteriology, 2025).

Target: GlnA3Mt (Rv1878), gamma-glutamylspermine synthetase of Mycobacterium tuberculosis (Mycobacterium tuberculosis H37Rv) (UniProt O07752)
Experiment: SEC

GlnA3Mt (Rv1878), gamma-glutamylspermine synthetase of Mycobacterium tuberculosis (from UniProt O07752 1-450) (enzyme)
stoichiometry N: 12
